The chains are these.
B1: monoclonal antibody 2-51 (antibody, V domains shown)
VH: QVQLVQSGAEVKKPGASVKVSCKVSGYTLIELSMHWVRQAPGKGLEWMGGFDPEDVETIYAQQFQGRVTMTEDTSTDTAYMELSSLRSEDTAVYYCATGWAYKSTWYFGYWGQGTLVTVSS
VL: QSALTQPPSASGSPGQSVTISCTGTSSDVGGYNYVSWYQQHPGKAPKLMIYEVSKRPSGVPDRFSGSKSGNTASLTVSGLQAEDEADYYCSSYAGSRMGFGGGTKLTVL
notes: also called mAb 2-51; antibody number 2-51
B2: monoclonal antibody 4-20 (antibody, V domains shown)
VH: QVQLLQSGAEVKKPGASVKVSCKASGYSFTSYYMHWVRQAPGQGLEWMGIINPSGGGTTYAQKFQGRVTMTRDTSTSTVYMELSSLRSEDTAVYYCARPGGGSYQEFDYWGQGTLVTVSS
VL: DIQMTQSPSSLSASVGDRVTITCRASQSISSYLNWYQQKPGKAPKLLISAASSLQSGVPSRFSGSGSGTDFTLTISSLQPEDFATYYCQQSYNTLQVTFGGGTKVEIK
notes: also called mAb 4-20; antibody number 4-20
B3: monoclonal antibody 2-30 (antibody, V domains shown)
VH: QVQLVESGGGVVQPGRSLRLSCAASGFTFSSYTMHWVRQAPGKGLEWVAAISYDGNNKYYADSVKGRFTISRDNSKNTLYLQMNSLRAEDTAVYYCARSILYGGGMDVWGQGTTVTVSS
VL: DIQLTQSPSSLSASVGDRVTITCRASQGISSYLAWYQQKPGQAPKLLIYAASTLQSGVPSRFSGSGSGTDFTLTISSLQPEDFATYYCQQLNSYPLTFGGGTKVEIK
notes: also called mAb 2-30; antibody number 2-30
B4: monoclonal antibody 2-43 (antibody, V domains shown)
VH: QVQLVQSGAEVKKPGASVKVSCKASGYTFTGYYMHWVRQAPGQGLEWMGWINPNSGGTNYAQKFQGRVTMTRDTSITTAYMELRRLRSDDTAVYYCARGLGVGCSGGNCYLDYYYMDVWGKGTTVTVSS
VL: QSALTQPASVSGSPGQSITISCTGTSSDVGGYNYVSWYQQHPGKAPKLMIYDVSKRPSGVSNRFSGSKSGNTASLTISGLQAEDEGDYYCSSYTSSSTWVFGGGTKLTVL
notes: also called mAb 2-43; monoclonal Ab 2-43
B5: monoclonal antibody 4-18 (antibody, V domains shown)
VH: QVQLVESGGGVVQPGRSLRLSCAASGFTFSSYGMHWVRQAPGKGLEWVAVISYDGSNKHYADSVKGRFTISRDNSKNTLYLQMNSLRAEDTAVYYCAKDSGYNYGYSWFDPWGQGTLVTVSS
VL: SYELTQPPSVSVSPGQTARITCSADALAKQYAYWYQQKPGQAPVLVIYKDSERPSGIPERFSGSSSGTTVTLTISGVQAEDEADYYCQSTDNSGTYPNWVFGGGTKLTVL
notes: also called mAb 4-18; antibody number 4-18
B6: monoclonal antibody 5-7 (antibody, V domains shown)
VH: QVQLVQSGAEVKKPGASVKVSCKASGYTFTSYYMHWVRQAPGQGLEWMGVINPSGGSTSYAEKFRGRVTMTRDTSTSTVYMELSSLRSEDTAVYYCARDREPHSDSSGYWDSLKYYYYYALDVWGQGTTVTVSS
VL: B3 VL with D1A, Q42K, K45E, S93T, L96F, G100P, E105D
notes: also called mAb 5-7; antibody number 5-7
B7: monoclonal antibody 1-68 (antibody, V domains shown)
VH: QVQLVQSGAEVKKPGASVKVSCKVSGYTLIELSMHWVRQAPGKGLEWMGGFDPEDAETIYAQKFQGRVTMTEDTSTDTAYMELSSLRSEDTAVYYCATGWAVAGSSDVWYYYYGMDVWGQGTTVTVSS
VL: QSALTQPPSVSGSPGQSVTISCTGTSSDVGSYNRVSWYQQPPGTAPKLMIYEVSNRPSGVPDRFSGSKSGNTASLTISGLQAEDEADYYCSSYTSSSTYVFGTGTKVTVL
notes: also called mAb 1-68; antibody number 1-68
B8: monoclonal antibody 2-38 (antibody, V domains shown)
VH: EVQLVESGGGLVKPGGSLRLSCAASGFTFSSYSMNWVRQAPGKGLEWVSSISSSSSYIYYADSVKGRFTISRDNAKNSLYLQMNSLRAEDTAVYYCTRAGWELRLDAFDIWGQGTMVTVSS
VL: SSELTQDPAVSVALGQTVRITCQGDSLRSSYASWYQQKPGQAPILVIYDKNNRPSGIPDRFSGSSSGNTASLTITGAQAEDEADYYCNSRDSSGILFGGGTKLTVL
notes: also called mAb 2-38; antibody number 2-38
B9: monoclonal antibody 2-7 (antibody, V domains shown)
VH: QITLKESGPTLVKPTQTLTLTCTFSGFSLSTSGVGVGWIRQPPGKALEWLALIYWDDDKRYSPSLKSRLTITKDTSKNQVVLTMTNMDPVDTATYYCAHHKIERIFDYWGQGTLVTVSS
VL: QSALAQPASVSGSPGQSITISCTGTSSDVGAYNYVSWYQQHPGKAPKLMIYDVSKRPSGVSNRFSGSKSGNTASLTISGLQAEDEADYYCSSYTTSSTVFGGGTKLTVL
notes: also called mAb 2-7; antibody number 2-7
B10: monoclonal antibody 2-15 (antibody, V domains shown)
VH: QVQLVQSGAEVKKPGASVRVSCKASGYTFTGYYMHWVRQAPGQGLEWMGWINPISDGTNYAQKFQGWVTMTRDTSISTVYMELSRLRSDDTAVYYCARGGSRCSGGNCYGWAYDAFDIWGQGTMITVSS
VL: B4 VL with Y34F, G86A, Y88C, W99F, G103T, L107V
notes: also called mAb 2-15; antibody number 2-15
B11: monoclonal antibody 2-4 (antibody, V domains shown)
VH: QVQLVQSGAEVKKPGASVKVSCKASGYTFTGYYMHWVRQAPGQGLEWMGWINPNSGGTNYTQMFQGRVTMTRDTSISTAYMEVSRLRSDDTAVYYCARDRSWAVVYYYMDVWGKGTTVTVSS
VL: QSALTQPPSASGSPGQSVTISCTGTSSDVGGYNYVSWYQQHPGKAPKLMIYEVSKRPSGVPDRFSGSKSGNTASLTVSGLQAEDEADYYCSSYAGSNNLVFGGGTKLTVL
notes: also called mAb 2-4; antibody number 2-4
B12: monoclonal antibody 1-20 (antibody, V domains shown)
VH: EVQLVESGGGLIQPGGSLRLSCAASGLTVSSNYMSWVRQAPGKGLEWVSVIYSGGSTFYADSVKGRFTISRDNSKNTLYLQMNSLRAEDTAVYYCARDLFYYGMDVWGQGTTVTVSS
VL: DIQLTQSPSFLSASVGDRVTITCRASQGISSYLAWYQQKPGKAPKLLIYAASTLQSGVPSRFSGSGSGTEFTLTISSLQPEDFATYYCQQLNSYPCFGPGTKVDIK
notes: also called mAb 1-20; antibody number 1-20
B13: monoclonal antibody 2-17 (antibody, V domains shown)
VH: QVQLVQSGAEVKKPGSSVKVSCKASGGTFSSYAISWVRQAPGQGLEWMGGNIPIFGTANYAQKFQGRVTITADESTSTAYMELSSLRSEDTAVYYCARGVGYRGVIPLNWFDPWGQGTVVTVSS
VL: EIVMTQSPATLSVSPGERATLSCRASQSVSSDLAWYQHKPGQAPRLLIYGASTRATGIPVRFSGSGSGTEFTLTISSLQSEDFAVYYCQQYNNWPPFTFGGGTKVEIK
notes: also called mAb 2-17; antibody number 2-17
B14: monoclonal antibody 1-87 (antibody, V domains shown)
VH: B7 VH with W100I, A103I, S105P, S106P, D107P, V108S, W109T
VL: B4 VL with G86A, W99Y, G103T, L107V
notes: also called mAb 1-87; antibody number 1-87

Residue numbers refer to the chain shown, from its start.

The first assay addresses T1, SARS-CoV-2 N-terminal domain (NTD) (SARS-CoV-2, UniProt P0DTC2 14-290).
T1 construct: range 1-290
The assay can be described thus: ELISA.
In the case of B1, the binding result is “no binding”. On the same count and under the same terms, with B2 the entry was “no binding”; with B3, “no binding”. For B4, the binding result is reported as “no binding”.

The target of the next assay is T1, SARS-CoV-2 N-terminal domain (NTD). The assay can be described thus: ELISA (FIG. 10D-F). On the technique in general: ELISA stands for enzyme-linked immunosorbent assay.
B5: the binding result was “binds”.

For B6, the binding result is “binds”. As for B7, the binding result is on record as “binds”.

The next assay has the same target. The assay is described as follows: quantitative ELISA.
As to B8, the binding result is given as “no binding”. Same read-out and setting: then B9, with “no binding”; and B10, with “no binding”; and B11, with “no binding”. For B12, the binding result is “no binding”.

A further assay has the same target. The assay is described as follows: quantitative ELISA (FIG. 16C, F, I).
Turning to B13, the binding result was “binds”. On the same count and under the same terms, then B14, with “binds”.

The record behind these values is patent US20230203134A1 (TRUSTEES OF COLUMBIA UNIVERSITY IN THE CITY OF NEW YORK, published 2023).
